This note sets out measurements from US20190375839A1 (JIANGSU HENGRUI MEDICINE, published 2019).

Numbering of substitutions follows the chain as printed. Names and notes keep the numbering of the source.

B1: h1701-009 (antibody, human IgG4 S228P, kappa, V domains shown)
VH: QVQLVQSGAEVKKPGASVKVSCKASGYTFTDYYMNWVRQAPGQGLEWMGDIIPNNGGSKYNQKFKDRVTMTTDTSTSTAYMELRSLRSDDTAVYYCATWGYGSSYRWFDYWGQGTLVTVSS
VL: DIQMTQSPSSLSASVGDRVTITCLASQPIGIWLAWYQQKPGKAPKLLIYAATSLADGVPSRFSGSGSGTDFTFTISSLQPEDIATYYCQQLYSSPWTFGGGTKVEIKR
notes: Humanized IgG4 (S228P)/kappa
B2: h1701-009NHG (antibody, human IgG4 S228P, kappa, V domains shown)
VH: B1 VH with N55H
VL: B1 VL
notes: HCDR2 point-mutation variant of h1701-009 (NNG to NHG); IgG4 (S228P)/kappa
B3: h1701-009NEG (antibody, human IgG4 S228P, kappa, V domains shown)
VH: B1 VH with N55E
VL: B1 VL
notes: HCDR2 point-mutation variant of h1701-009 (NNG to NEG); IgG4 (S228P)/kappa
B4: h1701-009NMA (antibody, human IgG4 S228P, kappa, V domains shown)
VH: B1 VH with N55M, G56A
VL: B1 VL
notes: HCDR2 point-mutation variant of h1701-009 (NNG to NMA); IgG4 (S228P)/kappa
B5: h1701-009NAG (antibody, human IgG4 S228P, kappa, V domains shown)
VH: B1 VH with N55A
VL: B1 VL
notes: HCDR2 point-mutation variant of h1701-009 (NNG to NAG); IgG4 (S228P)/kappa
B6: h1701-009NKG (antibody, human IgG4 S228P, kappa, V domains shown)
VH: B1 VH with N55K
VL: B1 VL
notes: HCDR2 point-mutation variant of h1701-009 (NNG to NKG); IgG4 (S228P)/kappa
B7: h1701-009NHA (antibody, human IgG4 S228P, kappa, V domains shown)
VH: B1 VH with N55H, G56A
VL: B1 VL
notes: HCDR2 point-mutation variant of h1701-009 (NNG to NHA); IgG4 (S228P)/kappa
B8: h1701-009NEA (antibody, human IgG4 S228P, kappa, V domains shown)
VH: B1 VH with N55E, G56A
VL: B1 VL
notes: HCDR2 point-mutation variant of h1701-009 (NNG to NEA); IgG4 (S228P)/kappa
B9: h1701-009NLG (antibody, human IgG4 S228P, kappa, V domains shown)
VH: B1 VH with N55L
VL: B1 VL
notes: HCDR2 point-mutation variant of h1701-009 (NNG to NLG); IgG4 (S228P)/kappa
B10: h1701-009NNA (antibody, human IgG4 S228P, kappa, V domains shown)
VH: B1 VH with G56A
VL: B1 VL
notes: HCDR2 point-mutation variant of h1701-009 (NNG to NNA); IgG4 (S228P)/kappa
B11: h1701-009NVG (antibody, human IgG4 S228P, kappa, V domains shown)
VH: B1 VH with N55V
VL: B1 VL
notes: HCDR2 point-mutation variant of h1701-009 (NNG to NVG); IgG4 (S228P)/kappa
B12: h1701-009NMG (antibody, human IgG4 S228P, kappa, V domains shown)
VH: B1 VH with N55M
VL: B1 VL
notes: HCDR2 point-mutation variant of h1701-009 (NNG to NMG); IgG4 (S228P)/kappa
B13: Ch1799 (antibody, human IgG4 S228P, kappa, V domains shown)
VH: EVKLVESEGGLVQPGSSMKLSCTASGFTFSDYYMAWVRQVPEKGLEWVANINYDGSSTYYLDSLKSRFIISRDNAKNILYLQMNSLKSDDTATYYCARDVGYYGGNYGFAYWGQGTLVTVSA
VL: DIQMTQSPASLSASVGETVTITCRASDNIYSYLAWYQQKQGKSPQLLVYNAKTLAEGVPSRFSGSGSGTQFSLKINSLQPEDFGSYYCQQHYGSPLTFGAGTKLELKR
B14: h1799-005 (antibody, human IgG4 S228P, kappa)
heavy: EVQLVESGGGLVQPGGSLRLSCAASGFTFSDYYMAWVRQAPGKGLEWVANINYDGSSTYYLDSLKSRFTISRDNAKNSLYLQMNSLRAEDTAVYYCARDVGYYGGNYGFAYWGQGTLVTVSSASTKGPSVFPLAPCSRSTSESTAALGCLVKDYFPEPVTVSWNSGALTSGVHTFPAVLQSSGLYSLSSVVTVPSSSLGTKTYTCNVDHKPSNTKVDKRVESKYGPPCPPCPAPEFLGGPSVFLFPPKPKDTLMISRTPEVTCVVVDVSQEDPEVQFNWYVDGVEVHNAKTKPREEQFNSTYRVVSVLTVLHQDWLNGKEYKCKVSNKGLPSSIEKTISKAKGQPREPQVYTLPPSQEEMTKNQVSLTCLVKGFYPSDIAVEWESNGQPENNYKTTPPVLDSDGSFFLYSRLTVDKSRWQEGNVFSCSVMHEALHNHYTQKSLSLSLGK
light: DIQMTQSPSSLSASVGDRVTITCRASDNIYSYLAWYQQKPGKAPKLLIYNAKTLAEGVPSRFSGSGSGTDFTLTISSLQPEDFATYYCQQHYGSPLTFGQGTKLEIKRTVAAPSVFIFPPSDEQLKSGTASVVCLLNNFYPREAKVQWKVDNALQSGNSQESVTEQDSKDSTYSLSSTLTLSKADYEKHKVYACEVTHQGLSSPVTKSFNRGEC
notes: Humanized IgG4 (S228P)/kappa
B15: h1799-010 (antibody, human IgG4 S228P, kappa)
heavy: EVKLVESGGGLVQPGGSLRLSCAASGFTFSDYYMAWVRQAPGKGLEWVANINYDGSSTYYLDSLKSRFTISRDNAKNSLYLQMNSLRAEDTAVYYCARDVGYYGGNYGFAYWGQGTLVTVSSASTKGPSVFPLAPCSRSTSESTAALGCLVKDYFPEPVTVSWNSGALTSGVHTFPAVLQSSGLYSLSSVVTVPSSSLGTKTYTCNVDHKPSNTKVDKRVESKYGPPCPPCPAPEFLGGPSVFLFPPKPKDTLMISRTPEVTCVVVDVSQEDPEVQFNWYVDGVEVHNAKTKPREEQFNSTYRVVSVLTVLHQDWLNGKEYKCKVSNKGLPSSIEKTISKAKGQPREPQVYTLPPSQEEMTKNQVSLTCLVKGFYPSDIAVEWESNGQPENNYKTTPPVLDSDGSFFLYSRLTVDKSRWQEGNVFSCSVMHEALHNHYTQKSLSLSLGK
light: B14 light
notes: Humanized IgG4 (S228P)/kappa
B16: h1799-019 (antibody, human IgG4 S228P, kappa, V domains shown)
VH: EVKLVESGGGLVQPGGSLRLSCAASGFTFSDYYMAWVRQAPGKGLEWVANINYDGSSTYYLDSLKSRFTISRDNAKNSLYLQMNSLKAEDTAVYYCARDVGYYGGNYGFAYWGQGTLVTVSS
VL: DIQMTQSPSSLSASVGDRVTITCRASDNIYSYLAWYQQKPGKSPQLLVYNAKTLAEGVPSRFSGSGSGTDFTLTISSLQPEDFASYYCQQHYGSPLTFGQGTKLEIKR
notes: Humanized IgG4 (S228P)/kappa
B17: h1799-006 (antibody, human IgG4 S228P, kappa)
heavy: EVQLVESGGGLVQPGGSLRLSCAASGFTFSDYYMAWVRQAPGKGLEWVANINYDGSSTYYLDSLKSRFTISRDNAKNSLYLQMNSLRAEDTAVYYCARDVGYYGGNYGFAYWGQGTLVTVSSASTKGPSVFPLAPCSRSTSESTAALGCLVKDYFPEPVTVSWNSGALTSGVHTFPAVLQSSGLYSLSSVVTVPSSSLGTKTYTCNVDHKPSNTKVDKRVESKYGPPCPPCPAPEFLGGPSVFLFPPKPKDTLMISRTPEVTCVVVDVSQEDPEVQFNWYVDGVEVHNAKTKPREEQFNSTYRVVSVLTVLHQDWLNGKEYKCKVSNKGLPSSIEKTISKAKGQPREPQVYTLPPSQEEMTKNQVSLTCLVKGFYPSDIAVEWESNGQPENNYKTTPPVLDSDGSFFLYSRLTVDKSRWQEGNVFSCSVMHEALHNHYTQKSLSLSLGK
light: B14 light with I48V
notes: Humanized IgG4 (S228P)/kappa
B18: Ch1701 (antibody, human IgG4 S228P, kappa, V domains shown)
VH: EVQLQQSGPELVKPGASVKISCKASGYTFTDYYMNWVKQSHGKSLEWIADIIPNNGGSKYNQKFKDKATLTVDKSSSTAYMELRSLTSEDSAVYYCATWGYGSSYRWFDYWGQGTLVSVSA
VL: DIQMTQSPASQSASLGESVTITCLASQPIGIWLAWYQQKPGKSPQLLIYAATSLADGVPSRFSGSGSGTKFSFKISSLQAEDFVSYYCQQLYSSPWTFGGGTKLEIKR
B19: h1701-010 (antibody, human IgG4 S228P, kappa, V domains shown)
VH: B1 VH
VL: B1 VL with A43S
notes: Humanized IgG4 (S228P)/kappa
B20: h1701-016 (antibody, human IgG4 S228P, kappa, V domains shown)
VH: B1 VH with M48I, G49A, V68A, M70L
VL: B1 VL with A43S
notes: Humanized IgG4 (S228P)/kappa
B21: ABTim-3 (antibody, V domains shown)
VH: QVQLQQPGAELVKPGASVKMSCKASGYTFTSYNMHWIKQTPGQGLEWIGDIYPGNGDTSYNQKFKGKATLTADKSSSTVYMQLSSLTSEDSAVYYCARVGGAFPMDYWGQGTSVTVSS
VL: DIVLTQSPASLAVSLGQRATISCRASESVEYYGTSLMQWYQQKPGQPPKLLIYAASNVESGVPARFSGSGSGTDFSLNIHPVEEDDIAIYFCQQSRKDPSTFGGGTKLEIK

The target in the first assay is T1, human TIM-3 full length, overexpressed on CHO-S cells (human, UniProt Q8TDQ0 22-301).
T1 construct: cells fixed with 4% PFA on plates; also called HAVCR2; Tim-3-overexpressing CHO-S cells
As to the kind of experiment: cell-based ELISA on CHO-S cells overexpressing human TIM-3. Background: In an ELISA, binding on a coated surface is turned into a signal by an enzyme label.
Protocol: (§1) The binding activity of anti-TIM-3 antibody to CHO-S cells overexpressing human TIM-3 is detected via a binding assay. […] TIM-3-overexpressing cells were immobilized on a 96-well plate. After the addition of the antibody, signal strength was used to determine the binding activity of the antibody to Tim-3-overexpressing CHO-S cells.
(§2) The cells were inoculated on a 96-well plate with 4E5/ml density, 100 μg/well, and cultured overnight. Supernatant was discarded and the plate was washed three times with PBS. 100 μl/well of 4% PFA was added into each well, and the plate was fixed at room temperature for 30 minutes. The plate was washed three times with PBS. The liquid was discarded, and 200 μl of blocking solution (5% skim milk (Guangming skim milk powder) diluted with PBS) was added to each well. The plate was incubated at 37° C. for 2.5 h. Then the blocking solution was discarded, and the plate was washed 5 times with PBST buffer (pH 7.4 PBS containing 0.05% Tween-20). 50 μl/well of various concentrations of antibodies to be tested (antibody via hybridoma purification or humanized antibody), diluted with sample buffer, were added into each well, and incubated at 37° C. for 1 h. […] The plate was washed 6 times with PBST, and 100 μl/well TMB chromogenic substrates (KPL, Cat, No., 52-00-03) was added to each well. The plate was incubated at room temperature for 5-15 min. Reaction was stopped by the addition of 50 μl of 1 M H₂SO₄ to each well.
For B1, a half-maximal response (EC50) required 0.503 nM.

For B2, the EC50 was determined as 0.317 nM.

Regarding B3, a half-maximal effect (EC50) was put at 0.673 nM.

In turn, B4 registered an EC50 of 0.629 nM.

With B5, a half-maximal response (EC50) required 0.512 nM.

B6 returned an EC50 of 0.438 nM.

For B7, the response was half-maximal at 0.53 nM (EC50).

With B8, the EC50 turned out to be 0.667 nM.

On to B9, for which the EC50 was 0.637 nM.

With B10, the response was half-maximal at 0.515 nM (EC50).

As to B11, the EC50 is 0.717 nM.

As for B12, the midpoint of the response, the EC50, lay at 0.603 nM.

The target of another assay is T1, human TIM-3 full length, overexpressed …. Kind of assay: cell-based ELISA on fixed CHO-S cells overexpressing human TIM-3.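 Note: antibody binding at serial dilutions to PFA-fixed cells for 1 h at 37 °C, read as TMB colour signal after acid stop.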
Protocol: as §1, §2
With B13, a half-maximal effect (EC50) was put at 0.08 nM.

Consider B14, for which a half-maximal effect (EC50) was put at 0.063 nM.

B15 returned an EC50 of 0.077 nM.

B16 gave an EC50 of 0.119 nM.

With B17, the EC50 worked out at 0.095 nM.

In turn, B18 yielded an EC50 of 0.166 nM.

Regarding B1, a half-maximal response (EC50) required 0.187 nM.

The molecule B19 gave a concentration giving a half-maximal response (EC50) of 0.069 nM.

Take B20: the EC50 is 0.058 nM.

For a further assay, the target named is T2, Extracellular domain of TIM-3 with Flag and His tag (human).
T2 construct: also called TIM-3-Flag-His
Kind of assay: Biacore SPR; antibody as stationary phase, 'TIM-3-His' as mobile phase.
With B1, the Kd is 0.599 nM.

For B2, the Kd was 0.64 nM.

B3 showed a Kd of 0.64 nM.

Consider B4, for which the Kd is 0.653 nM.

B5 displayed a Kd of 0.579 nM.

As for B6, the dissociation constant (Kd) was determined as 0.472 nM.

As to B7, binding was characterised by a dissociation constant (Kd) of 0.597 nM.

Take B8: binding was characterised by a dissociation constant (Kd) of 0.653 nM.

On to B9, for which the affinity, expressed as Kd, was 0.64 nM.

As to B10, binding was characterised by a dissociation constant (Kd) of 0.569 nM.

The molecule B11 displayed a Kd of 0.581 nM.

In the case of B12, binding was put at a Kd of 0.675 nM.

For another assay, the target named is T2, Extracellular domain of TIM-3 with Flag …. As to the kind of experiment: Biacore SPR; antibody captured by anti-human capture antibody on CM5, TIM-3-Flag-His in mobile phase.
Description: The reaction signal was detected in real-time using Biacore instrument to obtain the association and dissociation curves. […] In the experiment, after each cycle of dissociation was finished, the biosensor chip was washed with the regenerative solution in the human capture antibody Kit.
In turn, B13 had an equilibrium dissociation constant (Kd) of 1.76 nM.

B14 had a Kd of 1.78 nM.

B15 registered a Kd of 2.48 nM.

In the case of B17, the Kd stood at 1.89 nM.

As for B18, the Kd came out at 1.39 nM.

As to B1, the Kd was determined as 1.34 nM.

B19 registered a Kd of 2.25 nM.

As to B20, the Kd worked out at 1.6 nM.

The target in a further assay is T1, human TIM-3 full length, overexpressed …. Kind of assay: cell-based ELISA on fixed CHO-S cells overexpressing human TIM-3, HRP-labeled secondary antibody, OD450.
Regarding B21, the “EC50 (read off the curve)” value was around 0.2 nM.

Usually EC50 stands for the concentration at which the effect is half-maximal. What is called Kd is the constant that tells how readily two partners part at equilibrium. Low values mean tighter binding, high ones weaker binding. A word on the EC50 (read off the curve): it is the concentration giving half of the maximal effect. A high value points to a less potent agent.
